Test results published in the nanobody polyreactivity screen of Harvey et al. (2022).

experiment: yeast display, Sf9 membrane polyspecificity reagent, FACS + sequencing; frameworks hold sequencing errors
Procedure, shortened: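 After 36–48 hours of galactose induction, yeast (Saccharomyces cerevisiae BJ5465) displaying a synthetic nanobody library were stained at 4 °C for 1 hour with 10% biotinylated, detergent-solubilized Sf9 membrane reagent. Streptavidin microbeads enriched the stained cells before FACS sorting into low and high (top ~1%) gates on anti-HA and streptavidin fluorescence. Each clone's polyreactivity label reflects its gate of origin.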

Question: With “QVQLVESGGGLVQAGGSLRLSCADSGSIFTYTMGWYRQAPGKERELVAVISRSGGRTYYADSVKGRFTISRDNAKNTVYLQMNSLKPEDTAVYYCATDGHNGYYGRYDYWGQGTQVTVSS” as the sequence, how does the “polyreactivity (PSR sort gate)” value read?
Answer: high polyreactivity

Question: For “QVQLVESGGGLVQAGGSLRLSCADSGSIGYYAMGWYRQAPGKERELVAVISRSGTGTYYADSVKGRFTISRDNANNTVYLQMNSLKPEDTAVYYCNAETYTYRYENDYWGQGTQVTVSS”, which “polyreactivity (PSR sort gate)” value is on record?
Answer: high polyreactivity

Question: With “QVQLVESGGGLVQAGGSLRLSCADSGSIIYYAMGWNRQAPGKEREFVAAITKSGGSTYYADSVKGRFTISRDNAKNTVYLQMNSLKPEDTAVYYCAARGTWAGFYYWGQGTQVTVSS” as the sequence, how does the “polyreactivity (PSR sort gate)” value read?
Answer: high polyreactivity

Question: Which “polyreactivity (PSR sort gate)” value does the source give for “QVQLVESGGGLVQAGGSLRLSCADSGSIVLVNAMGWSRQAPGKEREMVAAITYGGDSTYYADSVKGRFTISRDNAKNSVYFQINSLKREDTAVYYFAADAWVGWHDEYDYWGQGTQVTVSS” here?
Answer: low polyreactivity

Question: Which “polyreactivity (PSR sort gate)” value does the source give for “QVQLVESGGGLVQAGGSLRLSCADSGSIYHNYDMGWYRQAPGKEKEFVADISRGGDTIYADSVKGRFSISRDNAKNTVYLQMNSLKPEDTAVYYCNATYWILDSPWWRETFDYWGQGTQVTVSS” here?
Answer: low polyreactivity

Question: Which “polyreactivity (PSR sort gate)” value does the source give for “QVQLVESGGGLVQAGGSLRLSCADSGSTFGYYAMGWYRQAPGKERELVAGISSGGTTKYADSVKGRFTISRDNAKNTVYLQMNSLKPVDTAVYYCAARFRRTRVTYYYWGQGTQVTVSS” here?
Answer: high polyreactivity

Question: Which “polyreactivity (PSR sort gate)” value does the source give for “QVQLVESGGGLVQAGGSLRLSCADSGSTFKGYTMGWYRQAPGKERELVAAIRSRSGNTYYADSVKGRFTISRDNAKNHVYLLMNSLKPEETAVYYCAAVQPYVDYDSWGQGTQVTVSS” here?
Answer: high polyreactivity

Question: With “QVQLVESGGGLVQAGGSLRLSCADSGSTFKYYAMGWYRQAPGKEREFVASINWSGVSTYYADSVKGRFTISRDNPKNTVYLQMNSLKPEDTSVYYCAARVRGKYDYWGQGTQVTVSS” as the sequence, how does the “polyreactivity (PSR sort gate)” value read?
Answer: high polyreactivity

Question: For “QVQLVESGGGLVQAGGSLRLSCADSGSTFRIFAMGWYRQAPGKERELVAAITGGGTHYADSVKGRFTISRDNAKNTVYLQMNSLTPEDTAVYYCAANRSKLYRYAMGYWGQGTQVTVSS”, which “polyreactivity (PSR sort gate)” value is on record?
Answer: high polyreactivity

Question: For “QVQLVESGGGLVQAGGSLRLSCADSGSTFSYNAMGWYRQAPGKERELVATITYSGTSTHYADSVKGRFTISRDNAKNTVYLQMNSLKPEDTAVYYCNAYSKGWGLPDDYWGQGTLVTVSS”, which “polyreactivity (PSR sort gate)” value is on record?
Answer: low polyreactivity

Question: With “QVQLVESGGGLVQAGGSLRLSCADSGSTFWYYVMGWYRQAPGKERELVAVINTRGGSTYYADSVKGRFTISRDNAKNTVYLQMNSLKPEDTAVYYCNARKVKRGKYNYWGQGTQVTVSS” as the sequence, how does the “polyreactivity (PSR sort gate)” value read?
Answer: high polyreactivity

Question: With “QVQLVESGGGLVQAGGSLRLSCADSGSTFYPYAMGWYRQAPGKEREFVAAISRGGTTTYYADSVKGRFTISRDNAKNTVYLQMNSLKPEDTAVYYCAARYVSVYRWTYDYWGQGTQVTVSS” as the sequence, how does the “polyreactivity (PSR sort gate)” value read?
Answer: high polyreactivity

Question: For “QVQLVESGGGLVQAGGSLRLSCADSGSTFYYYAMGWYRQAPGKERELVAAISTSGGSTYYADSVKGRFTISRDNAKNTVYFQMNSLKPEDTAVYYCAARYRRGMGYWGQGTQVTVSS”, which “polyreactivity (PSR sort gate)” value is on record?
Answer: high polyreactivity

Question: For “QVQLVESGGGLVQAGGSLRLSCADSGSTIYPYAMGWYRQAPGKERELVAAINRSGGRTYYADSVKGRFTISRDNAKNTVYLQMISLKPEDTAVYYCAARVRSRNSYDYWGQGTQVTVSS”, which “polyreactivity (PSR sort gate)” value is on record?
Answer: low polyreactivity

Question: For “QVQLVESGGGLVQAGGSLRLSCADSGSTLIGNAMGWYRQAPGKERELVAAISSGGRTYYADSVKGRFTISRDNAKNTVYLQMNSLKPEDTAVYYCAADTVGTNVVSPELDYWGQGTQVTVSS”, which “polyreactivity (PSR sort gate)” value is on record?
Answer: low polyreactivity

Question: Which “polyreactivity (PSR sort gate)” value does the source give for “QVQLVESGGGLVQAGGSLRLSCADSGSTYGGYAMGWYRQAPGKERELVAAISQSGGRTYYADSVKGRFTISRDNAKITVYFQMNSLKPEDTAVYYCAAYRTGYGRFTLDYWGQGSQVTVSS” here?
Answer: high polyreactivity

Question: With “QVQLVESGGGLVQAGGSLRLSCADSGYTFLDYAMGWYRQAPGKERELVAAINSGGSTYYADSVKGRFTISRDNAKNTVYLQMNSLKPEDTAVYYCAREDYVSYRLLYSLFDYWGQGTQVTVSS” as the sequence, how does the “polyreactivity (PSR sort gate)” value read?
Answer: low polyreactivity

Question: With “QVQLVESGGGLVQAGGSLRLSCADSGYTFYFYAMGWYRQAPGKESELVAAITGGGTTSYADSVKGRFTISRDNAKNTVYLEMNSLKPEDTAFYYCAAYAYGVWQYQYGGNYWGQGTQVTVSS” as the sequence, how does the “polyreactivity (PSR sort gate)” value read?
Answer: low polyreactivity

Question: With “QVQLVESGGGLVQAGGSLRLSCADSVFTFGYYAMGWYRQAPGKERELVAAISRNGGRTYYADSVKGRFTISRDNAKNNVYLQMNSLKTVYTAVHYCNALLFFLNRVWSFDYWGQGTQVTVSS” as the sequence, how does the “polyreactivity (PSR sort gate)” value read?
Answer: high polyreactivity

Question: Which “polyreactivity (PSR sort gate)” value does the source give for “QVQLVESGGGLVQAGGSLRLSCADSVSIVGYYTMGWYRQAPWKARELVSGITSTGNTNYADSVKGRFTISRDNAKNTVYLHMNSLKPEHTAVYYCAADSESTWDFGWELEVGYDYWGQGTQVNVSS” here?
Answer: low polyreactivity

Question: For “QVQLVESGGGLVQAGGSLRLSCAEYAMGCYRQAPGKERELVATITARGGSTYADSVKGRFTISRDNAKNTVYLQMNSLKPEDTAVYYCNADYGLFYRATFYGYDYWGQCTQVTVSS”, which “polyreactivity (PSR sort gate)” value is on record?
Answer: low polyreactivity

Question: For “QVQLVESGGGLVQAGGSLRLSCAGLRIYLPGYAKGWYIQAPGKERELVAVISGSGSGTYYADSVKGRFTISLDNAKNTVYLQMNSLKPEDTAVYYCAADAGSNEAYFRRMDYWGQGTQVTVSS”, which “polyreactivity (PSR sort gate)” value is on record?
Answer: high polyreactivity

Question: For “QVQLVESGGGLVQAGGSLRLSCAGSGFTFQYYAMGWYRQAPGKERELVAAMSWGGGSTYYADSVKGRFTISRDNAKKTVYLQMNSLKPEDTAVYYCNAYDYLSAGDDYWGQGTQVTVSS”, which “polyreactivity (PSR sort gate)” value is on record?
Answer: low polyreactivity

Question: For “QVQLVESGGGLVQAGGSLRLSCAGSGFTLDGYVMGWYRQAPGQEREFVAAIRSSGGSTRYADSVKGRFTISRDNAKNTVYLQMNSLKPEDTALYYSAAVAYYWGYEQWYDYWGQGTQVTVSS”, which “polyreactivity (PSR sort gate)” value is on record?
Answer: high polyreactivity

Question: Which “polyreactivity (PSR sort gate)” value does the source give for “QVQLVESGGGLVQAGGSLRLSCAGSGITFYWYAMGWDRQAPGKERELVAGISQSGSRTYYADSVKGRFTISRDNAKNTVYLQMNSLKPEDTAVYYCAARVRWSPTRTFEYWGQGTQVTVSS” here?
Answer: high polyreactivity

Question: Which “polyreactivity (PSR sort gate)” value does the source give for “QVQLVESGGGLVQAGGSLRLSCAGSGRTFWANTMGWYIQAPGKEREFVAAISGRDVSTYYADSVKGRFTISRDNAKNTVFLQMNSLKPEDTAVYYCAAQWQYLGHMGYWGQGTQVTVSS” here?
Answer: low polyreactivity

Question: For “QVQLVESGGGLVQAGGSLRLSCAGSGSISYFNAMGWYRQAPGKERELVAAISYSGGSTYYADSVKGRFTISRDNAKNTVYLQMNSLKPEDTAVYYCAADRLIGWRKTYYYWGQGTQVTVSS”, which “polyreactivity (PSR sort gate)” value is on record?
Answer: high polyreactivity

Question: Which “polyreactivity (PSR sort gate)” value does the source give for “QVQLVESGGGLVQAGGSLRLSCAGSGSTFKKYPMGWYREATGKEREFVAAISRGGRTYYADSVKGRFTSSRDNAKTTVYLQMNSLNPEDTAVYYCAADTFAYQEVYYWGQGTQVTVSS” here?
Answer: high polyreactivity

Question: Which “polyreactivity (PSR sort gate)” value does the source give for “QVQLVESGGGLVQAGGSLRLSCAGSGSTFRYYVLGWYRAAPGKDRVLVARITSAASTNYADSVKGRFTISRDNAKTTVNLQMNSLKPEDTPVYYCAADAYWIRSRFLYRIRYNYWGQGTQVTVSS” here?
Answer: high polyreactivity

Question: With “QVQLVESGGGLVQAGGSLRLSCAGSGSTFVYNAMGWYRQAPGKERELVAAITAAGGRTYYADSVKGRFTISRDTAKNTVYLQMNSLKPEDTAVYYCYTVRPHGMDYWGQGTQVTVSS” as the sequence, how does the “polyreactivity (PSR sort gate)” value read?
Answer: high polyreactivity

Question: Which “polyreactivity (PSR sort gate)” value does the source give for “QVQLVESGGGLVQAGGSLRLSCAGSGSTFYRYALGWYRQAPGKEWEWVAVINSGCSTYYADSVKGRFTISRDNAKHTVYVQMNSMKPEDTAVSYCAAVRNQGGYVYGYGYWGQGTQVTVSS” here?
Answer: high polyreactivity

Question: For “QVQLVESGGGLVQAGGSLRLSCAHSASNFGIYAMGWYRQAPGKERELVAPITWYGTSTYYADSVKGRFTISRDNSKNSVYLQMNSLKPEDTAVYYCATAYIQVSATFYEYEYWGQGTQVTVSS”, which “polyreactivity (PSR sort gate)” value is on record?
Answer: low polyreactivity

Question: With “QVQLVESGGGLVQAGGSLRLSCAHSGSIFGQNAMGWYRHAPGKVRELVAAIRVSGGSTYYADSVKGRFTISRDNAKNTVYLQMNSLKPEDTAGYYCNARYRGYDGPITHGVTSYYWGQGTQVTVSS” as the sequence, how does the “polyreactivity (PSR sort gate)” value read?
Answer: low polyreactivity

Question: With “QVQLVESGGGLVQAGGSLRLSCAPCGIIFTDYAMGWYRQAPGKERELVAAISSGGGSTYYADSVKGRFTISRDNAKNTVYLQMNSLKPEDTAVYYCNARSPYYSYLLHAYRVFDYWGQGTQVNVSS” as the sequence, how does the “polyreactivity (PSR sort gate)” value read?
Answer: high polyreactivity

Question: With “QVQLVESGGGLVQAGGSLRLSCAPSGFIFGHNTMGWYRQAPGKECELVARITSSGGRTYYADSVKGRFTISRDNAKNTVYLQMNSLKPLDSAVYYCAAVSPNTAYDYWGQGTQVTVSS” as the sequence, how does the “polyreactivity (PSR sort gate)” value read?
Answer: high polyreactivity

Question: Which “polyreactivity (PSR sort gate)” value does the source give for “QVQLVESGGGLVQAGGSLRLSCAPSGFTFDFYAMGWYRQEPGKATELFAAINSGGSTNYADSVKGRFTISRDNAKNTVYLQMNSLKPEDTAVYYCNADWFTPAQPWYRYFIRYDYWGQGSQVTVSS” here?
Answer: low polyreactivity

Question: With “QVQLVESGGGLVQAGGSLRLSCAPSGFTFGDYAMGWYRQAPGKERELVAAISWSGSNTYYADSVKGRFTLSRDNAKNTVYLQMNSLKPEDTAVYYCNADYDPEDMDYWGQGTQVTVSS” as the sequence, how does the “polyreactivity (PSR sort gate)” value read?
Answer: low polyreactivity

Question: With “QVQLVESGGGLVQAGGSLRLSCAPSGFTFGYYAMGWYRQAPGKEMELVAAISSSGGSTYYADSVKGRFTISRDNAKKTVYLQMNSLKREVTAVYYCAVVVFSRVYRYFTSDYWGQGTQVTVSS” as the sequence, how does the “polyreactivity (PSR sort gate)” value read?
Answer: high polyreactivity

Question: Which “polyreactivity (PSR sort gate)” value does the source give for “QVQLVESGGGLVQAGGSLRLSCAPSGFTFGYYAMGWYRQAPGKERELVAAITYSGGSTYYADSVKGRFTISRDNAKNTVYLQMNSLKPEDTAVYYCNAYDRRYYYGRWYGEFDYWGLGTQVTVSS” here?
Answer: low polyreactivity

Question: With “QVQLVESGGGLVQAGGSLRLSCAPSGFTFYKNAMGWYRQAPGKERELVAAITSSGGSTYYADSVKGRFTISRDNAKNTVYLQMNSLKPEDTAVYYCAAYPQAYIADYDYWGQGTQVTVSS” as the sequence, how does the “polyreactivity (PSR sort gate)” value read?
Answer: low polyreactivity

Question: For “QVQLVESGGGLVQAGGSLRLSCAPSGFTLSTYAMGWYRQAPGKERELVAAISRSTDRTYYADSVKGRFTISRDNAKNTVYLQMNSLKPEDTAVYYCAAKSVYYLYRFYYWGQGSQVTVSS”, which “polyreactivity (PSR sort gate)” value is on record?
Answer: high polyreactivity
